From patent US20110262471A1 (ONCOTHERAPY SCIENCE, published 2011) come the findings set out here.

The assay addresses T1, human beta 2m-HLA-A2.1 (alpha 1, alpha 2)-H-2 Db (alpha 3 transmembrane cytoplasmic; HHD) monochain (human; mouse, UniProt P61769 21-119; P01899 207-362).
T1 chain (looked up): not shown
Kind of assay: cell-based or functional assay.
Turning to AQPDTAPLPV [RAB6KIFL-A2-10-284 peptide], the “IFN-gamma ELISPOT of CD4- spleen cells of immunized HLA-A2.1 (HHD) Tgm, in response to BM-DCs pulsed with the peptide” value stood at 141 spot counts/well.
Then LLSDDDVVV [RAB6KIFL-A2-9-12 peptide], with 149 spot counts/well.
As to CIAEQYHTV [RAB6KIFL-A2-9-809 peptide], the “IFN-gamma ELISPOT of CD4- spleen cells of immunized HLA-A2.1 (HHD) Tgm, in response to BM-DCs pulsed with the peptide” value was found to be 117 spot counts/well.
